Legend:
Test in all cases: BLI
[1] = molecular target: T1, human integrin αMβ2 headpiece fragment (human, UniProt P11215 17-1152; P05107 23-482)
[2] = molecular target: T2, recombinant human αMβ2 αI domain (human)
T2 chain: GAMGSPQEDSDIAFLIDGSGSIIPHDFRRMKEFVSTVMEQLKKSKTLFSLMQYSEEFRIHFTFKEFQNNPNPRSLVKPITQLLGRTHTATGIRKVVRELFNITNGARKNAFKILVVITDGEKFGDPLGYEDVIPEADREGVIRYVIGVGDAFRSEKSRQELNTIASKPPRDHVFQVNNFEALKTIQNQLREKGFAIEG

[3] = molecular target: T1, human integrin αMβ2 headpiece fragment; remark: listed apart in the source
[4] = molecular target: T2, recombinant human αMβ2 αI domain

Kd [1]: 0.85 nM
Kd [2]: 6.6 nM
koff [3]: 0.00047 s⁻¹
koff [4]: 0.0032 s⁻¹
B1: biotinylated avi-tagged hCD11bNb1 (VHH)
VHH: QVQLVETGGGLVQAGGSLRLSCAASGNINSFNAMGWFRQAPGKQRELVAAITFGGRTNYADSVKGRFTISRDNTKGSVYLQMNSLKPEDTAVYYCAASENNLLTGVWHYWGRGTQVTVSS
modifications: biotin
